The assay addresses Biotinylated Human CD39-His. Description: MSD equilibrium; Fab.

What is called Kd is a measure of binding affinity in units of concentration. High values mean weaker binding, low ones tighter binding. Regarding SRF399-C, the Kd was found to be 0.053 nM.
